From patent US20210052649A1 (FRED HUTCHINSON CANCER RESEARCH CENTER, published 2021) come the findings set out here.

Bounds are passed on as bounds.

This assay addresses T1, ROR1-protein (human, UniProt Q01973 30-403, limits assumed).
T1 construct: also called orphan tyrosine kinase receptor ROR1
Description: assay not described; monovalent binding affinity for ROR1 compared with mAb 2A2.

T1 sequence (Q01973 30-403 limits assumed): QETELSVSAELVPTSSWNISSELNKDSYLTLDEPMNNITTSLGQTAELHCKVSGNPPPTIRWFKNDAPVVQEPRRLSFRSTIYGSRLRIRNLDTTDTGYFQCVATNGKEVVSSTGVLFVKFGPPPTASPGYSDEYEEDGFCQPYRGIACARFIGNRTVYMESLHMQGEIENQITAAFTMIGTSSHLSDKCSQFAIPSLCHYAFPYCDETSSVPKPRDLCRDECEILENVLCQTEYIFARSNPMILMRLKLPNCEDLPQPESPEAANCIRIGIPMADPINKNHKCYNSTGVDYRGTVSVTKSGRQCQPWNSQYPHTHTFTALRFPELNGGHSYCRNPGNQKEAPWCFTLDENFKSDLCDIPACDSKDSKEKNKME

B1: anti-ROR1 monoclonal antibody R12 (antibody, V domains shown)
VH: QEQLVESGGRLVTPGGSLTLSCKASGFDFSAYYMSWVRQAPGKGLEWIATIYPSSGKTYYATWVNGRFTISSDNAQNTVDLQMNSLTAADRATYFCARDSYADDGALFNIWGPGTLVTISS
VL: ELVLTQSPSVSAALGSPAKITCTLSSAHKTDTIDWYQQLQGEAPRYLMQVQSDGSYTKRPGVPDRFSGSSSGADRYLIIPSVQADDEADYYCGADYIGGYVFGGGTQLTVTG
notes: also called mAb R12; R12 mAb
With B1, the “fold higher monovalent binding affinity than 2A2” value was greater than 50 fold.
